Data as given in the RNAGym collection of RNA variant scans (doi:10.1073/pnas.2313332121).

B1: TPR t1 (parent)
chain: GACCAAUCUGCCCUCAGAGCUCGAGAACAUCUUCGGAUGCAGAGGAGGCAGGCUUCGGUGGCGCGAUAGCGCCAACGUCCUCAACCUCCAAUGCAUCCCACCACAUGAUGAUGCCUGAAGAGCCUUGGUUUUUUG

Variants of: B1
Assay: polymerase ribozyme fitness, log enrichment relative to wild type (log ratio); higher = more active; in vitro selection for triplet polymerase activity
Summary of the method: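 Mutant libraries for each subunit of a heterodimeric triplet polymerase ribozyme were made by PCR and then transcribed. Each library underwent one round of in vitro selection in triplicate: annealing with a biotinylated primer, the partner subunit and triplets, frozen incubation at −7 °C, gel excision of extended constructs, streptavidin-bead capture and RT-PCR. Input and output libraries were Illumina-sequenced, and only genotypes with ≥10 input reads and ≥1 read per output were kept. Fitness is the logarithm, base 2, of genotype enrichment over wild-type enrichment, computed from inverse-variance-weighted replicate averages.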

Row | Variant | polymerase ribozyme fitness (log ratio)
1 | A50C U55G G58C G61C U81A | 0.349
2 | A50U G51U G69A C97U U109A | -6.25
3 | A50G C56A | -0.266
4 | C49U G93A G110A | -2.9
5 | A50U A74C A84G U112A | -4.89
6 | A50C G61U C79G | -2.93
7 | A50U G128A | -3.35
8 | A50U U96A | -1.77
9 | A50U C73U | -0.956
10 | A50U U81C C114A | -6.09
11 | A50U C73U G117C C123A | -5.84
12 | G51A U130A | -3.19
13 | A50C U87A | -0.514
14 | A50G C73U | 0.871
15 | C49U U55G G63A | -1.98
16 | A50U G51A C73U | -3.5
17 | A50U G52U U87G | -2.24
18 | A50U G93C | -1.95
19 | G51A A95U | -3
20 | G51A C62A G117U U134G | -5.73
21 | G51C U78C A121C G122U C124A | -4.73
22 | G51A G77C A95C | -4.86
23 | A50G C123U | 1.02
24 | G51A U78C | -2.47

Row | Variant | polymerase ribozyme fitness (log ratio)
25 | A50U G60A C70U G93A | -3.24
26 | A50G C70U | -0.709
27 | A50G C70G | -4.35
28 | A50U G57U | -1.1
29 | A50G C99U C115U G117C | -6.47
30 | A50U U87G G113U | -4.19
31 | A50U A118C A121G U129A | -1.76
32 | A50C C72U U81G C85A | -1.34
33 | A50C G71A G77U G120C | -1.85
34 | A50C C123G | 0.334
35 | A50G C101U | -0.187
36 | A50U C53A U54A G93U A105U | -3.45
37 | A50G G57A C72U U96C C114U | -4.36
38 | C49U U116G | -2.41
39 | A50U G61C C79G U106C C115U C124A | -5.24
40 | C49U G63C C85U | -1.05
41 | A50U C101U A105U A121U U130C | -2.62
42 | C49U G93A G122A | -1.37
43 | G51A C73G | -0.931
44 | A50U C56U G71C C123A | -6.51
45 | C49U G135U | -1.61
46 | A50U G71C G117A | -3.1
47 | A50C G127A | -0.787
48 | G51A U78A C88G A121U | -1.45

Row | Variant | polymerase ribozyme fitness (log ratio)
49 | A50U G52A | -2.66
50 | A50U G52U | -2.39
51 | A50G C53A C72A | -0.193
52 | A50U G135U | -2.36
53 | A50C A74U | -1.45
54 | G51C G57C C73A G77U U78G | -3.02
55 | G51C G113C | -5.71
56 | G51C G61U | -5.29
57 | C49U U132C | -0.889
58 | G51C A91C U112A U131C | -6.14
59 | A50U U125G U129C | -2.41
60 | A50C C72U G135A | -1.52
61 | G51A C123G | -0.157
62 | G51A C123A | -1.89
63 | A50U U55G G58A | -5.41
64 | G51A C72G | -2.71
65 | A50G C82U | 0.198
66 | A50C A100C | -1.68
67 | A50G U130C | 0.163
68 | A50G U130G | -0.32
69 | A50C G52C C73U | -4.07
70 | A50C G60C U81G C86U G120C | -1.06
71 | A50C G120C | 0.605
72 | A50C G120A | 0.456

Row | Variant | polymerase ribozyme fitness (log ratio)
73 | G51A G57U U81C C101U | -2.52
74 | G51A C89G | -4.83
75 | G51A G93U C104U | -3.96
76 | G51C G60A U112G G117C | -7.03
77 | A50C G61C G127A | -5.03
78 | A50U C115U | -2.37
79 | A50C C56A A66G | -2.8
80 | A50C G69C C104U | -1.11
81 | A50G C62A U67A A84G C97U G110C A118G | -8.94
82 | C49U U106A U116G | -4.54
83 | C49U U81G | -3.78
84 | G51A A100U | -4.16
85 | A50U U106G | -2.78
86 | A50G C56U G69C C123G C124G | -5.93
87 | C49U G63C G93C C124U | -0.998
88 | A50C A90U | -2
89 | A50C A90C | -2.1
90 | G51C G52A U81C | -5.02
91 | A50U C102A | -2.99
92 | G51C C82A | -4.42
93 | C49U G110C | -5.17
94 | A50U C62U U133G | -1.1
95 | A50U C72U U96A U112A | -1.9
96 | G51C G63U A84U U112G U132A | -5.83

Row | Variant | polymerase ribozyme fitness (log ratio)
97 | A50G C64U C88G | -0.539
98 | A50G G71C G113U U126A | -6
99 | A50C G61C | -3.35
100 | A50U C62G C86G A105U A108U C124G | -7.62
101 | A50C C89A | -2.41
102 | G51A C64A U78C A84C G117C | -6.38
103 | A50U C115G A121C G128U | -4.2
104 | C49U G77C C124G U125C | -0.664
105 | C49U G117U | -2.67
106 | G51A C64A A84C G117C | -6.48
107 | A50U C62G U112G | -5.81
108 | G51A G69C U112A | -5.2
109 | A50U U59A | -0.619
110 | A50U C123U | 0.00244
111 | A50C U55G G58C G61C U81A C124A | 0.946
112 | A50U G61A U106A | -1.03
113 | G51A G61U G128C | -5
114 | G51C C99U | -7.54
115 | G51C | -3.7
116 | G51A | -2.49
117 | G51C C80G | -1.85
118 | C49U U106A | -0.703
119 | A50G G77A | -0.057
120 | A50C U87G C98U | -0.87

Row | Variant | polymerase ribozyme fitness (log ratio)
121 | A50U C86U | -1.27
122 | A50U C62G | -3.56
123 | A50U C62U | -1.15
124 | A50U C115A U133C | 0.332
125 | G51A G60C U92C U130A | -6.22
126 | A50G G69A A90C | -6.86
127 | C49U U109G | -5.61
128 | A50U G63A | -1.47
129 | G51A G60A C80A A95G A111G | -4.57
130 | A50G G113U | -2.68
131 | A50G G113C | -1.84
132 | G51C G71A C82G C85A | -4.52
133 | A50C G63A U125G G127U | -2.41
134 | A50G G128C | -1.8
135 | G51C G61A C94U C97U | -3.52
136 | A50U G60A | -0.0812
137 | A50U G60C | -1.06
138 | A50U U59A G60C C80G C88U | -2.26
139 | A50G C53A C73U | 0.0786
140 | A50U G63U C89U | -3.86
141 | G51A G52A U112A U116C G128A | -6.33
142 | G51A C53U C62G G69U C82U G120U | -6.98
143 | A50U C56U C73U A83C | -1.69
144 | G51A C53A G61A C73U | -2.68

Row | Variant | polymerase ribozyme fitness (log ratio)
145 | G51A C56U | -0.934
146 | G51A C56G | -2.03
147 | C49U G63A C80U G120A | -5.11
148 | A50U G57C A119U | -1.85
149 | A50G C62U U87A | -0.164
150 | A50G C73A C82U | -0.0319
151 | A50G U55G G110C | -4.52
152 | A50U G110U | -4.06
153 | A50U G110A | -2.67
154 | G51C G61A G120A U132A | -2.03
155 | G51C C70G U109G | -7.25
156 | A50U U92A | -5.22
157 | A50U U92G | -3.4
158 | A50C G71U | 0.242
159 | A50C C62A C98A A111U U112A | -6.58
160 | G51C G93C | -4.73
161 | A50G C89G | -1.08
162 | G51A C115G | -4.23
163 | A50U G69A C101A U130G | -6.9
164 | G51C G60A | -3.46
165 | A50U G69C | -1.7
166 | A50U C62A C82A | -1.33
167 | A50U G120A | -0.296
